Data set [1] addresses T1, human N-cadherin naturally expressed on DX3 melanoma cells (human, UniProt P19022 160-906).
T1 construct: also called DX3 Cells; N-cadherin+ve DX3 melanoma cells
T1 sequence: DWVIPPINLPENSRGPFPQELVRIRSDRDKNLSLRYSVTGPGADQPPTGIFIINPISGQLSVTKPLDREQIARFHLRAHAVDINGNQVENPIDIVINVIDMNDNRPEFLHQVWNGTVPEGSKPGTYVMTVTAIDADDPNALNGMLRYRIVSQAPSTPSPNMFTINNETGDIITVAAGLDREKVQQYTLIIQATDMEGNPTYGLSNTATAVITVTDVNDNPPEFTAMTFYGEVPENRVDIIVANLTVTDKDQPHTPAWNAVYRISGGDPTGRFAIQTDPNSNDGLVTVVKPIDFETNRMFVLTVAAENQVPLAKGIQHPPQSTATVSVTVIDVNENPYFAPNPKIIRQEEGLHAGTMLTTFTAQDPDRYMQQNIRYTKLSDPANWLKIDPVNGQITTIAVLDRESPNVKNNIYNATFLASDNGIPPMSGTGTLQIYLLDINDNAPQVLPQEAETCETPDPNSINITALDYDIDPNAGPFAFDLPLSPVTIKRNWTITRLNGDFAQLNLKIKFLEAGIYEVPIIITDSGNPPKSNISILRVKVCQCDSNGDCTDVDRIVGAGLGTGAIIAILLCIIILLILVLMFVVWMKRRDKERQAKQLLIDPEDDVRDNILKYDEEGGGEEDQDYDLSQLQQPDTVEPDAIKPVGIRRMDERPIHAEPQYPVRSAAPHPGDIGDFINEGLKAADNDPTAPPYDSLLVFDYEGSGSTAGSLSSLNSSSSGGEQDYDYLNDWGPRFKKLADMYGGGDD
Put plainly: adhesion of DX3 cells to coated monomeric N-cadherin-Fc, oxidising buffer. The procedure:
Monomeric or dimeric N-cadherin-Fc fusion protein in Cos cell supernatants was added as described for the ELISA assay. DX3 Cells, a human melanoma cell line which expresses N-cadherin, were dissociated with Cell Dissociation Solution (Sigma, code C5789), resuspended in HBSS with 2% FCS and assessed for adhesion to wild type or mutant N-cadherin-Fc as previously described (Corps et al., 2001). Microscopic examination established that the cells were present as a single cell suspension as they settled onto the plate. For assays conducted in reducing conditions, 10 mM DTT was present during the adhesion and washing steps. Determinations were conducted in triplicate and results are presented as mean +/−sem.

For data set [2], the target named is T2, full length chicken N-cadherin with the N-terminus extended by two glycine residues (GG) expressed on K562 … (chicken, UniProt P10288 165-912).
T2 construct: whole, on cells; also called cells expressing the GG N-terminal extension mutant; K562 GG
T2 sequence: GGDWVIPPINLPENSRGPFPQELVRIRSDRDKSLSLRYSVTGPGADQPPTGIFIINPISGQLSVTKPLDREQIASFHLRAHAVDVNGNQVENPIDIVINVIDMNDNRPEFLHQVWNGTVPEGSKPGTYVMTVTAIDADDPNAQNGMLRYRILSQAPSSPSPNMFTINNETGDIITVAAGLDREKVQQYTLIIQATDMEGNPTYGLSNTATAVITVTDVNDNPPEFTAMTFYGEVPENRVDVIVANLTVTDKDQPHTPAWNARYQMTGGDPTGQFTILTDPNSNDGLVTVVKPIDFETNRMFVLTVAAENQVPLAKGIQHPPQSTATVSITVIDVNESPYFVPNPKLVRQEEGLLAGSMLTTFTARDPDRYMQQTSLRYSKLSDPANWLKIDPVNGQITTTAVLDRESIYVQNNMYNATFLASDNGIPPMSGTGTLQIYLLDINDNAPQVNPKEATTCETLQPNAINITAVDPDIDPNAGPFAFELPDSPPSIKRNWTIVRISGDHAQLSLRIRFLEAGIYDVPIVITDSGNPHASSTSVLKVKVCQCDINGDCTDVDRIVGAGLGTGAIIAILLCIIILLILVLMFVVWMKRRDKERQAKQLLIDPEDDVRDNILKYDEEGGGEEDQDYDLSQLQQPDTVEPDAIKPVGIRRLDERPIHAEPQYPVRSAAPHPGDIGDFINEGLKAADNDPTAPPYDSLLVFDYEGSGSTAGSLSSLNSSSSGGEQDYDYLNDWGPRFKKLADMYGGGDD
The experiment in a line: adhesion of K562 transfectants to coated N-cadherin Fc. As to the method:
Adhesion tests were conducted substantially as described in Example 1. Briefly, K562 Cells or L cells transfected with wild type or mutant N-cadherin were allowed to settle for 45 minutes at 37° C. onto N-cadherin Fc fusion proteins coated at 1 μg/ml to a 96 well plate. Non-adherent cells were then washed off and residual adherent cells were quantitated by measuring acid phosphatase activity. Assays were conducted in quadruplicate and results are expressed as % cells adhering +/−SEM.

Data set [3] deals with the molecule itself. Put plainly: bead aggregation assay, 1.25 mM CaCl2. The procedure:
Dynabeads (Dynal Biotech) coupled to Protein A were coated with N-cadherin Fc at 1 μg/ml in calcium and magnesium-free HBSS containing 0.1% Tween 20, 1% FCS and 4 mM EDTA. Eppendorf tubes containing beads and fusion protein were rotated slowly for 1 hour at room temperature to allow binding to take place. The beads were then washed in the above assay buffer lacking EDTA and then resuspended in the same buffer supplemented with 1.25 mM CaCl₂. Beads were allowed to aggregate in a volume of 100 μl for 2 hours at 37° C. by slow rotation, in an eppendorf tube, at approximately 20 rpm. Aggregation was then assessed by light microscopy.
In the experiments described so far in this example, disruption of the salt bridge prevented intramolecular docking of Trp 2 in one or both components of the dimer. In an alternative strategy to prevent intramolecular docking, we removed Trp2 by introducing the mutation W2G or blocked the hydrophobic acceptor pocket with an isoleucine side chain projecting into the cavity using the mutation A801. N-cadherin Fc fusion proteins with these mutations were then tested against our panel of K562 transfectants (FIG. 17a). In keeping with the explanation given in FIG. 5, the W2G mutant acted as a strand acceptor and therefore adhered strongly to the E89A mutant whereas the A80I mutant was a strand donor and adhered to the GG extension mutant. […] In contrast, beads coated with the W2G or A801 mutants and tested separately clustered in twos and threes, whereas beads coated with the negative control mutant, D134A, were entirely monodisperse. To test whether all five extracellular domains of N-cadherin (EC1-EC5) are necessary for the strong adhesive interaction between the complementary mutants, we compared the adhesive activity of the W2G mutant prepared as a full length (EC1-EC5) Fc fusion protein with that of the same mutant prepared as a truncated construct containing only cadherin domains EC1 and EC2.

Data set [4] concerns the molecule itself. Put plainly: disulphide-bonded cis-dimers on the cell surface; non-reducing SDS-PAGE and immunoblot. A general note: In western blotting, separated proteins are transferred to a membrane and probed.

These results are taken from patent publication US20080274950A1 (BABRAHAM INSTITUTE, published 2008).

B1: monomeric chicken N-cadherin-Fc with the mutation D27C (Fc fusion, UniProt P10288 165-728, looked up)
chain: DWVIPPINLPENSRGPFPQELVRIRSCRDKSLSLRYSVTGPGADQPPTGIFIINPISGQLSVTKPLDREQIASFHLRAHAVDVNGNQVENPIDIVINVIDMNDNRPEFLHQVWNGTVPEGSKPGTYVMTVTAIDADDPNAQNGMLRYRILSQAPSSPSPNMFTINNETGDIITVAAGLDREKVQQYTLIIQATDMEGNPTYGLSNTATAVITVTDVNDNPPEFTAMTFYGEVPENRVDVIVANLTVTDKDQPHTPAWNARYQMTGGDPTGQFTILTDPNSNDGLVTVVKPIDFETNRMFVLTVAAENQVPLAKGIQHPPQSTATVSITVIDVNESPYFVPNPKLVRQEEGLLAGSMLTTFTARDPDRYMQQTSLRYSKLSDPANWLKIDPVNGQITTTAVLDRESIYVQNNMYNATFLASDNGIPPMSGTGTLQIYLLDINDNAPQVNPKEATTCETLQPNAINITAVDPDIDPNAGPFAFELPDSPPSIKRNWTIVRISGDHAQLSLRIRFLEAGIYDVPIVITDSGNPHASSTSVLKVKVCQCDINGDCTDVDRIVGAGLGT
notes: extracellular domain; not shown: hinge region, CH2 and CH3 domains of human IgG1 heavy chain (vector pIgSig)
Turning to B1, in data set [1], the binding result was “binds”.

B2: chicken N-cadherin Fc fusion protein with the mutations E89A and D134A (Fc fusion, UniProt P10288 165-728, looked up)
chain: DWVIPPINLPENSRGPFPQELVRIRSDRDKSLSLRYSVTGPGADQPPTGIFIINPISGQLSVTKPLDREQIASFHLRAHAVDVNGNQVANPIDIVINVIDMNDNRPEFLHQVWNGTVPEGSKPGTYVMTVTAIAADDPNAQNGMLRYRILSQAPSSPSPNMFTINNETGDIITVAAGLDREKVQQYTLIIQATDMEGNPTYGLSNTATAVITVTDVNDNPPEFTAMTFYGEVPENRVDVIVANLTVTDKDQPHTPAWNARYQMTGGDPTGQFTILTDPNSNDGLVTVVKPIDFETNRMFVLTVAAENQVPLAKGIQHPPQSTATVSITVIDVNESPYFVPNPKLVRQEEGLLAGSMLTTFTARDPDRYMQQTSLRYSKLSDPANWLKIDPVNGQITTTAVLDRESIYVQNNMYNATFLASDNGIPPMSGTGTLQIYLLDINDNAPQVNPKEATTCETLQPNAINITAVDPDIDPNAGPFAFELPDSPPSIKRNWTIVRISGDHAQLSLRIRFLEAGIYDVPIVITDSGNPHASSTSVLKVKVCQCDINGDCTDVDRIVGAGLGT
notes: extracellular domain; also called D134A in combination with E89A; not shown: hinge region, CH2 and CH3 domains of human IgG1 heavy chain (vector pIgSig)
Regarding B2, in data set [2], the binding result is on record as “no binding (tested: Fc fusion protein coated at 1 µg/ml)”.

B3: chicken N-cadherin Fc fusion protein with the pocket-blocking mutation A80I (Fc fusion, UniProt P10288 165-728, looked up)
chain: DWVIPPINLPENSRGPFPQELVRIRSDRDKSLSLRYSVTGPGADQPPTGIFIINPISGQLSVTKPLDREQIASFHLRAHIVDVNGNQVENPIDIVINVIDMNDNRPEFLHQVWNGTVPEGSKPGTYVMTVTAIDADDPNAQNGMLRYRILSQAPSSPSPNMFTINNETGDIITVAAGLDREKVQQYTLIIQATDMEGNPTYGLSNTATAVITVTDVNDNPPEFTAMTFYGEVPENRVDVIVANLTVTDKDQPHTPAWNARYQMTGGDPTGQFTILTDPNSNDGLVTVVKPIDFETNRMFVLTVAAENQVPLAKGIQHPPQSTATVSITVIDVNESPYFVPNPKLVRQEEGLLAGSMLTTFTARDPDRYMQQTSLRYSKLSDPANWLKIDPVNGQITTTAVLDRESIYVQNNMYNATFLASDNGIPPMSGTGTLQIYLLDINDNAPQVNPKEATTCETLQPNAINITAVDPDIDPNAGPFAFELPDSPPSIKRNWTIVRISGDHAQLSLRIRFLEAGIYDVPIVITDSGNPHASSTSVLKVKVCQCDINGDCTDVDRIVGAGLGT
notes: extracellular domain; also called A80I mutant; not shown: hinge region, CH2 and CH3 domains of human IgG1 heavy chain (vector pIgSig)
With B3, the binding result in data set [3] and in data set [2] was “binds” throughout.

B4: full length chicken N-cadherin with the mutation D1C expressed on K562 cells (receptor, UniProt P10288 165-912, looked up)
chain: CWVIPPINLPENSRGPFPQELVRIRSDRDKSLSLRYSVTGPGADQPPTGIFIINPISGQLSVTKPLDREQIASFHLRAHAVDVNGNQVENPIDIVINVIDMNDNRPEFLHQVWNGTVPEGSKPGTYVMTVTAIDADDPNAQNGMLRYRILSQAPSSPSPNMFTINNETGDIITVAAGLDREKVQQYTLIIQATDMEGNPTYGLSNTATAVITVTDVNDNPPEFTAMTFYGEVPENRVDVIVANLTVTDKDQPHTPAWNARYQMTGGDPTGQFTILTDPNSNDGLVTVVKPIDFETNRMFVLTVAAENQVPLAKGIQHPPQSTATVSITVIDVNESPYFVPNPKLVRQEEGLLAGSMLTTFTARDPDRYMQQTSLRYSKLSDPANWLKIDPVNGQITTTAVLDRESIYVQNNMYNATFLASDNGIPPMSGTGTLQIYLLDINDNAPQVNPKEATTCETLQPNAINITAVDPDIDPNAGPFAFELPDSPPSIKRNWTIVRISGDHAQLSLRIRFLEAGIYDVPIVITDSGNPHASSTSVLKVKVCQCDINGDCTDVDRIVGAGLGTGAIIAILLCIIILLILVLMFVVWMKRRDKERQAKQLLIDPEDDVRDNILKYDEEGGGEEDQDYDLSQLQQPDTVEPDAIKPVGIRRLDERPIHAEPQYPVRSAAPHPGDIGDFINEGLKAADNDPTAPPYDSLLVFDYEGSGSTAGSLSSLNSSSSGGEQDYDYLNDWGPRFKKLADMYGGGDD
notes: whole, on cells; also called D1C cells; K562 D1C
On to B4, for which, in data set [4], the binding result is reported as “binds”.

B5: full length chicken N-cadherin with the mutation D27C expressed on K562 cells (receptor, UniProt P10288 165-912, looked up)
chain: DWVIPPINLPENSRGPFPQELVRIRSCRDKSLSLRYSVTGPGADQPPTGIFIINPISGQLSVTKPLDREQIASFHLRAHAVDVNGNQVENPIDIVINVIDMNDNRPEFLHQVWNGTVPEGSKPGTYVMTVTAIDADDPNAQNGMLRYRILSQAPSSPSPNMFTINNETGDIITVAAGLDREKVQQYTLIIQATDMEGNPTYGLSNTATAVITVTDVNDNPPEFTAMTFYGEVPENRVDVIVANLTVTDKDQPHTPAWNARYQMTGGDPTGQFTILTDPNSNDGLVTVVKPIDFETNRMFVLTVAAENQVPLAKGIQHPPQSTATVSITVIDVNESPYFVPNPKLVRQEEGLLAGSMLTTFTARDPDRYMQQTSLRYSKLSDPANWLKIDPVNGQITTTAVLDRESIYVQNNMYNATFLASDNGIPPMSGTGTLQIYLLDINDNAPQVNPKEATTCETLQPNAINITAVDPDIDPNAGPFAFELPDSPPSIKRNWTIVRISGDHAQLSLRIRFLEAGIYDVPIVITDSGNPHASSTSVLKVKVCQCDINGDCTDVDRIVGAGLGTGAIIAILLCIIILLILVLMFVVWMKRRDKERQAKQLLIDPEDDVRDNILKYDEEGGGEEDQDYDLSQLQQPDTVEPDAIKPVGIRRLDERPIHAEPQYPVRSAAPHPGDIGDFINEGLKAADNDPTAPPYDSLLVFDYEGSGSTAGSLSSLNSSSSGGEQDYDYLNDWGPRFKKLADMYGGGDD
notes: whole, on cells; also called K562 D27C
Consider B5, for which the binding result in data set [4] is “binds”.
